± gives the uncertainty stated by the source.

A short description of the series: amyloid nucleation score (Sup35N fusion, yeast selection) (log enrichment); library NNK3; higher = more nucleation; inactive = no reads after selection. The method, boiled down:
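Random libraries were run with three technical output replicates. In each, psi-negative yeast expressing Sup35N fused to peptides of 20 random codons were induced 24 hours with 100 μM copper sulfate and grown 7 days at 30°C on medium lacking adenine and uracil, and input and output plasmid inserts were Illumina-sequenced. The nucleation score is the DiMSum log enrichment of output over input reads, centred on the mode score of non-aggregating sequences, and sequences under 100 input reads were excluded.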
With YNCFDDNTYPYSANGSRNSL, the amyloid nucleation score result is “inactive”.

ELGFCNWGGLSWLNQDSSGV registered an amyloid nucleation score of -0.085 ± 1.

For ICGIDSLN, the amyloid nucleation score result was “inactive”.

For AFAFYSD, the amyloid nucleation score result is “inactive”.

Regarding ERFYTLVI, the amyloid nucleation score result was “inactive”.

YVDNLACLNSFPIMPVFKVG: the amyloid nucleation score entry was “inactive”.

Regarding FYYYDLYYGRVFRDSPYSMS, the amyloid nucleation score entry is “inactive”.

With GNYSREVRKNVYPETGVRQM, the amyloid nucleation score result is “inactive”.

For the substance REMKWRLELLVGGKYRYHQL, the amyloid nucleation score result was “inactive”.

As for TFSFHLCIQEPTSFDNSLHT, the amyloid nucleation score amounted to 0.164 ± 0.36.

With VNRKLWGT, the amyloid nucleation score entry is “inactive”.

Turning to ICDSDFRY, the amyloid nucleation score result is “inactive”.

Substance GFVFQVYPQFVWVPPTTSRQ gave an amyloid nucleation score of 1.2 ± 0.18.

Consider VYPSTSTLNYVMLQLTPVNS, for which the amyloid nucleation score result is “inactive”.

As to IRSDG, the amyloid nucleation score entry is “inactive”.

Turning to TPLSHNVRIMKKLGCDRRD, the amyloid nucleation score result is “inactive”.

Turning to DALRL, the amyloid nucleation score result is “inactive”.

On to SCGHFIGCWMGTQVRIYGKQ, for which the amyloid nucleation score entry is “inactive”.

Consider YFNRNQYVDDTCG, for which the amyloid nucleation score entry was “inactive”.

For ASGVATSFGFRLWSCVEDIE, the amyloid nucleation score entry was “inactive”.

The substance NWYVECYITYSLVLYLANDS returned an amyloid nucleation score of 1.69 ± 0.066.

Take SYKMNVMT: the amyloid nucleation score result was “inactive”.

As for SNFVIVSWIVTNVLRM, the amyloid nucleation score was 0.869 ± 0.094.

Take TDRVNFSRLFSLIHDWLTPG: the amyloid nucleation score result is “inactive”.

With RFIWIGIWKEGEGLADYSEK, the amyloid nucleation score result is “inactive”.

Regarding MWLKPCRGKIKMRGYFSLNG, the amyloid nucleation score result was “inactive”.

Turning to LLRVCVSFRCIVNSCMRR, the amyloid nucleation score result was “inactive”.

The substance VVMSWYLVVTI had an amyloid nucleation score of 0.883 ± 0.26.

As to VHICKWVM, the amyloid nucleation score result was “inactive”.

With CPPGWRCQHKLDLTLGPDRW, the amyloid nucleation score entry is “inactive”.

As for IGKVLDAFGE, the amyloid nucleation score entry is “inactive”.

FGELS: the amyloid nucleation score entry was “inactive”.

With VGSYVGRAVVEGYNCRVDTG, the amyloid nucleation score result was “inactive”.

Regarding YIMAFCCLLPNPPVSVLMAH, the amyloid nucleation score result was “inactive”.

As for MMLGVLYATLWPLLKLDCGE, the amyloid nucleation score entry was “inactive”.

YKSLIVNANYCDLGFLRGWC: the amyloid nucleation score was 2.6 ± 0.064.

On to IVGDRSLRSDEFSCC, for which the amyloid nucleation score entry was “inactive”.

In the case of ALIYNATGLTYF, the amyloid nucleation score result is “inactive”.

On to TDAYKLITFIFPCKYLVTVC, for which the amyloid nucleation score entry was “inactive”.

With RQLMIDAQSVYKCCGQPW, the amyloid nucleation score result was “inactive”.

In the case of LFNLGICYTISNYSLSLEQS, the amyloid nucleation score is 2.1 ± 0.086.

For the substance SEALCWIVTSVCRLRVFLV, the amyloid nucleation score entry is “inactive”.

Take MWWGWKRFHSMRNYDAYIQM: the amyloid nucleation score result is “inactive”.

As for GQVLNCVRNRIRIAVKRRGG, the amyloid nucleation score result is “inactive”.

On to RTLYSQNFK, for which the amyloid nucleation score result is “inactive”.

As for MKWNPLDQTKL, the amyloid nucleation score result was “inactive”.

Regarding ISILEVKMWLLWTELERTIT, the amyloid nucleation score result was “inactive”.

Take IYHYIYSASMKLNTHGELMP: the amyloid nucleation score entry was “inactive”.

Take SVSGKRFDVMVLFLHSSKRL: the amyloid nucleation score entry was “inactive”.

As to TRSFVRSGAWNSLEGW, the amyloid nucleation score is 1.16 ± 0.16.

Take MICRSSGFLYGCSWFGILYL: the amyloid nucleation score result is “inactive”.

Consider GKGPNCMGASFLNGAHWSGI, for which the amyloid nucleation score result was “inactive”.

For the substance TITKVNFWEQVRRLLQSGTQ, the amyloid nucleation score entry is “inactive”.

For LAYQGSGLIQQLAGLKHTTV, the amyloid nucleation score entry was “inactive”.

On to RYCNAWLAGKSIFAPFVGTM, for which the amyloid nucleation score result is “inactive”.

Turning to AIPLYWIEFRVRKLSSLFLQ, the amyloid nucleation score entry was “inactive”.

Consider LQAYAMGNYRGDKK, for which the amyloid nucleation score entry is “inactive”.

As to YMGCMTVW, the amyloid nucleation score result was “inactive”.

Consider TFAMGLSARSISYCTNTRCP, for which the amyloid nucleation score came to 0.464 ± 0.4.

FYHNNYINANHVWRKSY: the amyloid nucleation score result was “inactive”.

Turning to HIWVCHWRYYVIMLPRSAWI, the amyloid nucleation score entry was “inactive”.

Turning to YCFVPRIMYMVCQYCVLTND, the amyloid nucleation score entry was “inactive”.

As for QSGTLLGLLHQANYLGYAF, the amyloid nucleation score entry was “inactive”.

On to FLYYATGHRIFLV, for which the amyloid nucleation score result is “inactive”.

Turning to TGCGQFH, the amyloid nucleation score result was “inactive”.

As for YVRSYLILS, the amyloid nucleation score entry was “inactive”.

Take YFNGATS: the amyloid nucleation score entry is “inactive”.

On to DYSHLCSNIQGIAFVVVIQN, for which the amyloid nucleation score result is “inactive”.

Regarding DFLLATDQVGYKDLDLGTKV, the amyloid nucleation score entry is “inactive”.

As to QIVRLTSNIPRTAPSWSFH, the amyloid nucleation score result is “inactive”.

As for DMDDHPDYHRNTND, the amyloid nucleation score result was “inactive”.

For NLSNIFQSNMYVTRSVNGVR, the amyloid nucleation score was 1.68 ± 0.084.

Take CCFPVVRKPFG: the amyloid nucleation score result is “inactive”.

As for TAWLSSNFVSDRHCGYGSDC, the amyloid nucleation score entry was “inactive”.

With TNWDKNYYSCYIIKGLRWER, the amyloid nucleation score entry was “inactive”.

With YSSLW, the amyloid nucleation score result was “inactive”.

Take PWDQDGGSTYSKGGPSNWEF: the amyloid nucleation score result was “inactive”.

In the case of IPTSLCGGAQLGRTRVLFLW, the amyloid nucleation score entry is “inactive”.

For the substance MPCVMILYVIYSIY, the amyloid nucleation score turned out to be 0.013 ± 0.59.

In the case of ICSSFDGQ, the amyloid nucleation score worked out at 0.458 ± 0.2.

For the substance GAVRMVETTMYFLFTMPSGS, the amyloid nucleation score was 0.359 ± 0.24.

Take LKLTHD: the amyloid nucleation score result was “inactive”.

Consider VPGSSNVTCLYEGLSSYNTR, for which the amyloid nucleation score result is “inactive”.

For LTVNDDFRYKAFWVCRSMFV, the amyloid nucleation score result was “inactive”.

YYLVYPRNIIMYKGNNFLKP came in with an amyloid nucleation score of 2.24 ± 0.063.

Regarding PVTIFKETCWP, the amyloid nucleation score entry is “inactive”.

Regarding SHFGLDAICFIKLSTDGCTG, the amyloid nucleation score entry is “inactive”.

VEYNWSLFFNPRDFRGARDL showed an amyloid nucleation score of 0.505 ± 0.27.

As to DGLSLPPMMVNRVQTATQSR, the amyloid nucleation score result is “inactive”.

Regarding AFRGCSSLYS, the amyloid nucleation score result is “inactive”.

Take FRSTGRKQELLLHSRKKQLP: the amyloid nucleation score result is “inactive”.

For YFYIPGH, the amyloid nucleation score entry is “inactive”.

With QTRVTVYSWVPRDYFSQHED, the amyloid nucleation score result is “inactive”.

For GVSISQPTILQWSTVRTSID, the amyloid nucleation score was 0.04 ± 0.85.

With TQSWLCRV, the amyloid nucleation score entry was “inactive”.

Regarding FGRTHAYSLFQKKSGFLLTP, the amyloid nucleation score entry is “inactive”.

As for ASSLVVVCDAMSEASVLNKG, the amyloid nucleation score entry is “inactive”.

RYVRCFLYTYKNFFD: the amyloid nucleation score entry was “inactive”.

Consider YDYYFFNSFNISDIMR, for which the amyloid nucleation score result is “inactive”.

Turning to VGSIYDSHNLPMSGHSDWNG, the amyloid nucleation score entry was “inactive”.

Regarding DFYFRVIVVGGHCVSDTSFL, the amyloid nucleation score result is “inactive”.

As to VSYSNDKGIWIYGTSLYPGA, the amyloid nucleation score entry was “inactive”.

On to YEMMCQYVYECWYIIDARRM, for which the amyloid nucleation score was 0.06 ± 0.23.

As for APDFATIFITRWGDIQTLLV, the amyloid nucleation score entry was “inactive”.

In turn, TKKASSYQVDWFSCCWEYGA registered an amyloid nucleation score of 0.708 ± 0.26.

As for RYRSGLDPFRCSYFNSPFYS, the amyloid nucleation score result was “inactive”.

In turn, LVFVCARQSTIEVRGKQSRM gave an amyloid nucleation score of 2.06 ± 0.065.

On to VLNSRTTPFI, for which the amyloid nucleation score entry was “inactive”.

For PSFLNSMGS, the amyloid nucleation score entry was “inactive”.

Consider PAERYKRSSLAKSYRLNYRS, for which the amyloid nucleation score entry was “inactive”.

On to LYNFRECTQTSFISFVCQLV, for which the amyloid nucleation score result is “inactive”.

Consider SFYPLCRQAVTDMFNKHCFP, for which the amyloid nucleation score entry is “inactive”.

As for NDFLDVGSVSSYVNTQLPMS, the amyloid nucleation score was -0.086 ± 0.8.

With IKCIPFCDVGWSLTVLRYVT, the amyloid nucleation score entry was “inactive”.

As for FQWITSIRSSKKMGCY, the amyloid nucleation score entry is “inactive”.

TVLGM registered an amyloid nucleation score of 0.699 ± 0.17.

Take QSRPKMMFLDSGCFWGFCVR: the amyloid nucleation score result is “inactive”.

With WGVNYMLWDCIYEATLSLIP, the amyloid nucleation score entry is “inactive”.

On to VFMCILDWRVNSHMCLKLFH, for which the amyloid nucleation score result is “inactive”.

For the substance KRVLEGRFITVSM, the amyloid nucleation score result is “inactive”.

As for EYELESESKCPLDFAFIKKG, the amyloid nucleation score entry is “inactive”.

As for TWVTAGYCVNIYRTRSWMK, the amyloid nucleation score result is “inactive”.

YLSINHRTTSFYWYDFAGFP gave an amyloid nucleation score of 0.537 ± 0.17.

Take WMVNVTGWISHGRFGYNFLI: the amyloid nucleation score result was “inactive”.

For NGSIILICLVYVGLRCLWFL, the amyloid nucleation score entry is “inactive”.

In the case of RDIMGLDLFQARNTTRSNYK, the amyloid nucleation score result is “inactive”.

Consider GVLLFLYCYLRGPLYSTTSV, for which the amyloid nucleation score result is “inactive”.

The substance YMLIKYGSL yielded an amyloid nucleation score of 0.449 ± 0.35.

In turn, QVGQESDSCLSSIRLCFKYR registered an amyloid nucleation score of 0.163 ± 0.24.

RMVHS gave an amyloid nucleation score of 1.62 ± 0.091.

Take CAIRDS: the amyloid nucleation score was -0.647 ± 0.41.

YSWGRWICHNVVE gave an amyloid nucleation score of -0.21 ± 0.74.

The values above are taken from the supplement of paper PMC12042874.
